Values of other authors, collected in article PMC7500696.

Target: tropomyosin N-terminal peptide N-terminal fragment (UniProt P09493)
Experiment: CD

Question: Which Kd does the source give for “Leiomodin-2 Lmod2s1 Lmod2s1 (from UniProt Q3UHZ5)” here?
Answer: 1000 nM
